Data as given in the supplement of paper PMC10567573.

B1: RAB40A (parent)
chain: NWLGRPSKVLSLQDLCCRTIVSCT

Variants of: B1
Test: protein stability index of a GFP-peptide fusion (GPS, HEK-293T) (PSI 1-6); higher = more stable
Details: c terminus: a fixed tail appended
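Note: lentivirally expressed fusions sorted by FACS into six bins by GFP to DsRed ratio, PSI derived from sequencing read proportions per bin multiplied by bin number.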

Protein stability index: each site, then its substitutions
L12: F 2.75, C 1.79, A 1.38, D 1.8, N 1.46, Y 3.31, R 2.23, Q 2.31, P 1.48, K 2.15, E 1.8, I 2.27, T 1.81, G 3.06, V 2.87, H 2.31, W 2.25, S 1.73, M 1.95
R18: K 2.65, E 2.49, V 2.39, S 2.58, D 1.99, N 2.5, C 2.35, P 1.61, M 1.72, W 1.83, H 1.98, Q 2.26, A 2.03, Y 1.73, L 2.11, F 1.87, I 1.68, T 2.26, G 2
Q13: F 2.75, H 2.62, C 2.42, W 2.82, L 2.44, S 2.67, P 1.68, R 3.23, Y 2.42, M 2.12, G 2.21, E 2.41, I 2.93, K 2.86, V 2.81, N 1.8, T 2.51, A 2.86, D 1.61
I20: F 1.89, H 2.48, D 2.4, E 2.04, A 1.94, K 2.62, C 2.32, G 2.47
G4: P 2.42, W 2.09, I 2.13, N 2.27, V 2.56, A 2.73, C 1.5, M 2.34, H 2.33, L 2.29, K 2.48, D 2.57, T 2.07, E 2.77, F 2.23, Y 2.35, Q 2.34, S 2.21, R 2.42
S7: C 2.21, E 2.12, Y 1.92, L 2.13, I 2.25, G 2.15, R 2.02, V 2.22, D 2.28, T 2.41, N 1.95, H 1.96, P 2.27, Q 2.47, M 2.03, K 2.59, A 2.24, F 2.28, W 1.82
C17: K 3.26, I 2.54, L 2.77, H 2.88, D 2.79, M 2.54, V 2.6, E 3.08, F 2.53, N 2.95, Y 2.22, T 3.23, Q 3.09, S 2.75, G 2.34, R 3.23, P 1.74, A 2.66, W 2.03
R5: A 2.46, F 2.27, Q 2.55, K 2.42, N 2.56, H 2.25, E 2.7, Y 2.06, D 2.51, I 2.2, W 3.09, S 2.69, P 3.14, L 2.06, V 2.52, M 2.85, G 2.35, T 2.42, C 2.76
W2: S 2.96, Y 2.68, T 3.08, V 2.71
L10: Q 2.24, D 2.31, G 2.64, Y 2.43, T 2.49, R 2.6, I 2.41, K 2.35, S 2.57, W 1.93, N 2.22, M 2.56, F 2.02, H 2.07, C 2.04, A 2.52, P 2.62, E 2.15, V 2.09
T19: R 2.19, N 2.91, I 2.6, P 1.86, W 1.97, V 2.22, A 2.52, Q 2.31, M 2.27, Y 2.23, E 2.53, F 2.26, L 2.16, H 2.41, D 2.64, S 2.51, G 2.07, K 2.69, C 2.04
P6: H 2.21, I 2.4, M 1.76, C 2.13, R 2.29, A 1.79, F 2.17, T 2.14, N 2.66, L 1.76, E 2.55, Q 2.06, W 2.11, K 2.06, V 1.91, D 2.48, Y 1.88, S 2.38, G 2.25
D14: Y 2.04, W 1.84, K 1.9, T 2.11, R 1.51, P 1.97, C 1.78, H 2.13, V 1.72, F 2.14, N 2.29, I 1.48, S 2.07, L 1.67, G 2.45, E 2.54, Q 2.12, A 1.99, M 1.58
V9: A 2.31, T 2.45, G 2.32, Q 2.2, N 2.4, D 2.28, C 2.07, E 2.3, I 2.36, P 2.09, M 2.23, Y 2.23, R 1.85, F 1.93, S 2.05, L 2.12, K 2.29, H 2.21, W 2.16
L15: F 1.45, H 1.99, E 2.15, K 2.16, V 1.72, P 1.62, R 2.51, Q 2.42, I 2.31, C 1.89, D 2.02, A 2.15, G 1.74, S 1.96, T 1.92, M 2.13, W 2.1, N 2.18, Y 2.15
S11: G 1.54, W 1.77, Y 2.03, N 2.22, A 1.88, C 1.66, L 1.86, H 1.92, Q 2.11, E 2.01, P 2.14, R 2.2, M 1.97, V 2.74, F 1.67, D 1.9, T 2.6, K 2.67
L3: M 2.2, N 2.46, S 2.64, Q 2.85, E 2.75, T 2.95, K 3.05, F 2.28, R 2.56, I 2.36, Y 2.51, V 2.26, W 2.11, H 2.3, D 2.62, A 2.53, G 2.69, P 2.58, C 2.39
K8: H 2.16, F 2.35, Y 1.96, P 2.29, N 2.52, V 1.89, T 1.88, G 2.01, C 2.08, M 1.75, S 2.31, I 2.11, L 2, E 2.26, D 2.1, A 1.98, Q 1.97, R 2.65, W 2.33
C16: K 2.25, W 2.79, R 1.75, N 1.61, F 2.44, S 2.31, H 1.58, T 2.06, I 2.17, V 2.19, Y 1.44, G 1.44, D 2.2, E 1.9, L 2.02, Q 1.51, A 2.5, M 1.98, P 2.02
